The source of these data is PMC8626073.

For this series, the target named is T1, NlFMD-F (female-specific isoform, SR-rich protein) (Nilaparvata lugens, UniProt A0A974LNP1 1-613).
T1 sequence: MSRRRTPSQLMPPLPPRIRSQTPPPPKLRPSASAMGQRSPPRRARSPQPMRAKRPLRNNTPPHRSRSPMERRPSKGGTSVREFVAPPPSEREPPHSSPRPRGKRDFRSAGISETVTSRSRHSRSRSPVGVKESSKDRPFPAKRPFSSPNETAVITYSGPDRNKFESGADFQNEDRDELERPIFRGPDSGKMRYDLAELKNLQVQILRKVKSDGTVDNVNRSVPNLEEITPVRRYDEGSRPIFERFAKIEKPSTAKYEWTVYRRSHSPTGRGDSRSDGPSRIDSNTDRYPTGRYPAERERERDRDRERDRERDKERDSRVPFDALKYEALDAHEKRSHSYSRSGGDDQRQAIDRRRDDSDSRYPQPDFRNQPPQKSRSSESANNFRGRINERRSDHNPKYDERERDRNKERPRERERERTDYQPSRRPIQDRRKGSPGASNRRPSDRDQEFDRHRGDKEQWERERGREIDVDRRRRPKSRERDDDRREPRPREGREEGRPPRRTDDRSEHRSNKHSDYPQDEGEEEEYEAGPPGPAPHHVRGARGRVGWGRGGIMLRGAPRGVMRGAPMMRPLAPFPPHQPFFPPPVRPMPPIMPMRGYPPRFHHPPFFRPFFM
Kind of series: MST.

B1: GAAGAAGAA repeat (RAAGAA motif) (ssRNA)
RNA: GAAGAAGAA
On to B1, for which the binding result is “no binding”.
